In patent publication US20160024208A1 (Regeneron, published 2016):

T1: N-Term Biotin Nav1.7 (3-1) peptide, mulatta (mulatta (monkey), not fully specified; N-terminal biotin attached via a G4S linker)
T1 construct: Synthetic peptide; also called Mulatta Nav1.7 3-1 N-term biotin; monkey
T1 peptide: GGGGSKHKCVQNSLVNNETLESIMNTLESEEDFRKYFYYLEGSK

T2: Native Nav1.7 (3-1) peptide, human (human)
T2 construct: Synthetic peptide (Celtek), unbiotinylated; also called Human Nav1.7 3-1 native; Nav1.7 3-1 native peptide
T2 peptide: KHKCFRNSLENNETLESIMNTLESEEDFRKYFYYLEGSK

T3: Native Nav1.7 (3-1) peptide, rat (rat)
T3 construct: Synthetic peptide; also called Rat Nav1.7 3-1 native
T3 peptide: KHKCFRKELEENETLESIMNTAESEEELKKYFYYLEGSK

T4: C-term Biotin Nav1.7 (3-1) peptide, human (human, not fully specified; C-terminal biotin attached via a G4S linker)
T4 construct: Synthetic peptide; also called Human Nav1.7 3-1 C-term biotin
T4 peptide: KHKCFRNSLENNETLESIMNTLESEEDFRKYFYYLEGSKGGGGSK

T5: N-Term Biotin Nav1.7 (3-1) peptide, mouse (mouse, not fully specified; N-terminal biotin attached via a G4S linker)
T5 construct: Synthetic peptide; also called Mouse Nav1.7 3-1 N-term biotin
T5 peptide: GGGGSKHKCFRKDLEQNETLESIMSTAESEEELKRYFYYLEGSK


Tests used:
[1] = molecular target: T1, N-Term Biotin Nav1.7 (3-1) peptide, …; assay: SPR, captured antibody, peptide analyte
In short: (§1)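 Peptide analytes flowed at multiple concentrations over anti-Nav1.7 antibodies held by an anti-Fc capture surface. After reference-surface and buffer-blank subtraction, a global 1:1 Langmuir fit gave ka and kd, with KD as kd/ka and dissociative half-life as ln2/kd.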

[2] = molecular target: T2, Native Nav1.7 (3-1) peptide, human; assay: SPR, captured antibody, peptide analyte
In short: as §1

[3] = molecular target: T3, Native Nav1.7 (3-1) peptide, rat; assay: SPR, captured antibody, peptide analyte
In short: as §1

[4] = molecular target: T4, C-term Biotin Nav1.7 (3-1) peptide, …; assay: SPR, captured biotin-peptide, antibody analyte
[5] = molecular target: T6, full-length human Nav1.7 fused at its N-terminus to GFP, expressed in HEK293 cells (human, UniProt Q15858 1-1988); assay: flow cytometry; % stained hNav1.7-GFP-HEK293 minus parental HEK293
T6 construct: Voltage-gated sodium channel alpha subunit; In the Western blot it stood as denatured cell lysate; also called hNav 1.7-GFP-HEK293; Nav 1.7-GFP-HEK293; not shown: green fluorescent protein (GFP) at the N-terminus
In short: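 Percent-stained values come from FACS of healthy live cells, taking transfected-cell staining minus parental HEK293 staining. Cells were exposed on ice for 20 min to 1-13 nM antibody, then 20 min to 1.7 nM fluorescent anti-human or anti-mouse Fc secondary.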

[6] = molecular target: T5, N-Term Biotin Nav1.7 (3-1) peptide, …; assay: SPR, captured antibody, peptide analyte
In short: as §1

Kd [1] [nM] | t1/2 [1] [min] | Kd [2] [nM] | t1/2 [2] [min] | Kd [3] [nM] | t1/2 [3] [min] | Kd [4] [nM] | t1/2 [4] [min] | % Binding Nav1.7 [5] [%] | binding result [3] | binding result [6] | binding result [4] | Kd [6] [nM] | t1/2 [6] [min] | Binder
18.1 | 1.7 | 332 | 0.3 | 298 | 0.1 | 19.2 | 3.8 | 68.9 |  |  |  |  |  | H1M836N (antibody, V domains shown) VH: QVQLVESGGGVVQPGRSLRLSCAASGFTFSSYGMHWVRQAPGKGLEWVAVISYDGNNKYYADSVKGRFTISRDNSKNTLYLQMNSLRAEDTAVYYCAKGSAGYALDYWGQGTLVTVSS VL: not shown
1.05 | 11.7 | 4.43 | 3 |  |  | 0.27 | 87 | 63 | no binding | no binding |  |  |  | H1M879N (antibody, V domains shown, Hybridoma-derived) VH: EVQLVESGGGLVKPGGSLRLSCAASGFTFSSYTIHWVRQAPGKGLEWVSSISSSSSYIYYVDSVKGRFTISRDNAKNSVYLQMNSLRAEDTAVYYCATSSITARGYFDYWGQGTLVTVSS VL: EIVLTQSPATLSLSPGERVTLSCRASQSVSSYLAWYQQKPGQAPRLLIYDASNRATGIPARFSGSGSGTDFTLTISSLEPEDFAVYYCQQRNIWPPTFGQGTKVEIK
 |  |  |  |  |  |  |  | 68.6 |  |  | no binding |  |  | H1M852N (antibody, V domains shown, constant region may differ; also called H4H852N) VH: QVQLVESGGGVVQPGRSLTLSCAASGFMFNRFGMHWVRQAPGKGLDWVAVIWYDGSNKYYADSVKGRFTISRDNSKNTLYLQVNSLRAEDTAVYYCAREGTPHYYDSSGLDYWGQGTLVTVSS VL: AIQMTQSPSSLSAYVGDRVTITCRASQDIRNDLGWYQQKPGKAPNLLIYDISSLQSGVPSRFSGSGSGTDFTLTISSLQPEDFATYYCLQDYNYPLTFGGGTKVEIK
0.435 | 43.7 | 0.462 | 16 | 2.57 | 5.8 | 0.359 | 99.1 | 14.4 |  |  |  | 7.4 | 4.6 | H1M797N (antibody, V domains shown) VH: QVQLVESGGGVVQPGRSLRLSCAASGFTFSSYGMHWVRQAPGKGLEWVAVISYDGNNKHFADSVKGRFTISRDNSKNTLNLQMNSLRAEDRAVYYCARGASGFVLDIWGQGTMVTVSS VL: DIVMTQTPLSSPVTLGQPASISCRSSQSLVRSDGNTYLSWLQQRPGQPPRLLIYKISNRFSGVPDRFSGSGAGTDFTLKISRVEAEDVGIYFCMQTTQFPFTFGPGTKVDIK
0.889 | 16.8 | 3.73 | 4.3 | 4.16 | 3.6 | 0.511 | 71 | 49.5 |  |  |  | 3.53 | 4.2 | H1M801N (antibody, V domains shown, also called H1H801N) VH: QVQVVESGGGVVQPGRSLRLSCAASGFTFSNYGMHWVRQAPGKGLEWVTVISYDGSNKNYADSVKGRFTISRDNSKNTLYLQMNSLRAEDTAMYYCARGGSGFAFDIWGQGTMVTVSS VL: DIVMTQTPLSSPVTLGQPASISCRSSQSLVRSDGNTYLSWLQQRPGQPPRLLIYKISNRFSGVPDRFSGSGAGTDFTLKISRVEADDVGVYYCMQTTQFPFTFGPGTKVDIK
6.1 | 7.5 | 16.4 | 3.3 | 33.9 | 0.74 | 0.239 | 81.7 | 8.6 |  |  |  | 103 | 0.62 | H1H1006B (antibody, V domains shown, Fully human antibody; also called H4H1006B-1) VH: EVQLVESGPGLVKSSETLSLKCTVSGGSISSSGYYWGWIRQPPGKGLEWIGSIHRSGSTFYNPSLKSRVTISVDTSKSQFSLRLTSVTAADTSVYFCGRHGRDYYYGMDVWGQGTTVTVSS VL: DIQMTQSPSSVSASVGDRVTITCRSSQDINNWLVWYQQKPGKAPKVLIYGASRLQSGVPSRFSGSGSGTDFTLTISSLQPEDFATYYCQQANSFPLTFGGGTKVEIKR
